# According to patent US20260209347A1 (BIORAY PHARMACEUTICAL, published 2026):
# Read-outs that look alike come from different tables or passages of the source.
# Legend:
# [1] = target: human NKG2A/CD94 on cells (CHOK1-hNKG2A/CD94) (human) (UniProt P26715); experiment: cell-based or functional assay
# [2] = target: human NKG2A/CD94 on cells (CHOK1-hNKG2A/CD94) (human) (UniProt P26715); experiment: cell-based or functional assay; remark: listed apart in the source
# [3] = target: human NKG2A/CD94 on cells (CHOK1-hNKG2A/CD94) (human) (UniProt P26715); experiment: FACS on human NKG2A overexpressing cell line
# human NKG2A/CD94 on cells (CHOK1-hNKG2A/CD94) (human), sequence (P26715 whole entry, chain 1 of 2): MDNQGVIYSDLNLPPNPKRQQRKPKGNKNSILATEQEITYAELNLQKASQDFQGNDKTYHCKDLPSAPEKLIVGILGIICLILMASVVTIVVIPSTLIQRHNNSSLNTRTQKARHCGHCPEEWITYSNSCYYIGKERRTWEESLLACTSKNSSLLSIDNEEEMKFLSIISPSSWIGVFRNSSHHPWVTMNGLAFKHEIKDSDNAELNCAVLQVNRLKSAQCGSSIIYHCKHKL
# human NKG2A/CD94 on cells (CHOK1-hNKG2A/CD94) (human), sequence (Q13241 whole entry, chain 2 of 2, further chain): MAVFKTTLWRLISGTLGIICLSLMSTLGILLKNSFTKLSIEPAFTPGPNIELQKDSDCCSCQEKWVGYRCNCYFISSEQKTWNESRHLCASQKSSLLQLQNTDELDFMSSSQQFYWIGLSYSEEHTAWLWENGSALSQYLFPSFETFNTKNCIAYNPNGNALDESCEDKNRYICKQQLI
binder,measurement,setting,value
"NKG2A positive control antibody Z270 (Monalizumab) (antibody, INN chains, looked up, V domains shown) VH: QVQLVQSGAEVKKPGASVKVSCKASGYTFTSYWMNWVRQAPGQGLEWMGRIDPYDSETHYAQKLQGRVTMTTDTSTSTAYMELRSLRSDDTAVYYCARGGYDFDVGTLYWFFDVWGQGTTVTVSS VL: DIQMTQSPSSLSASVGDRVTITCRASENIYSYLAWYQQKPGKAPKLLIYNAKTLAEGVPSRFSGSGSGTDFTLTISSLQPEDFATYYCQHHYGTPRTFGGGTKVEIK","IC50 (nM), killing of LCL721.221 target cells by NK92 cells",[1],1.11 nM
same,"IC50 (nM), killing of LCL721.221 target cells by NK92 cells",[2],0.57 nM
same,Maximum MFI,[3],16100 MFI
